Data published in US5827710, “DNA encoding the subunit of avian lactate dehydrogenase” (Oriental Yeast Co., Ltd., dated 1998).

Target: the molecule itself
Assay: gel filtration column chromatography (SMART system) of the purified recombinant protein: about 147,000 found, against about 36,000 calculated for each subunit
Source text: 3) Determination of the molecular weight of the recombinant chicken LDH-B₄ protein As a result of gel filtration column chromatography analysis of the purified sample by a SMART system (made by Pharmacia), the molecular weight of the purified recombinant chicken LDH-B₄ protein was about 147,000 (FIG. 10). It is presumed that the subunits B of chicken LDH are combined to form a tetramer (theoretical molecular weight of about 140,000) because the molecular weight of each subunit B of chicken LDH is calculated at about 36,000 from its amino acid sequence.

B1: type B subunit of chicken lactate dehydrogenase (recombinant, expressed in Saccharomyces cerevisiae from YRp1G-cLD-B) (enzyme)
chain: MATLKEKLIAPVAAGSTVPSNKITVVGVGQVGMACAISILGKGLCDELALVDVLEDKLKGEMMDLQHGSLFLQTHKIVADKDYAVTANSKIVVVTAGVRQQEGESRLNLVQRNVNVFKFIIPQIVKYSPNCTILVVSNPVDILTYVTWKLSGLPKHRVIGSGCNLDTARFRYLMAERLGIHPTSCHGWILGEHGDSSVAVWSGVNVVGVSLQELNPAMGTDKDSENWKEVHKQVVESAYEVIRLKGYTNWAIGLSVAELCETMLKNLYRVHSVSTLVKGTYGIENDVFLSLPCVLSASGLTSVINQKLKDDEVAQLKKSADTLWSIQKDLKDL
  binding result: binds
